Biological target: GST (glutathione S-transferase) released from the GST-P fusion protein (S. japonicum)
Assay: SEC

GST (glutathione S-transferase) released from the GST-P fusion protein (natural protein)
stoichiometry N: 2

Source: PMC12409746
